In PMC8861115, “Characterization and structural analyses of a novel glycosyltransferase acting on the β-1,2-glucosidic linkages” (The Journal of Biological Chemistry, 2022):

How the values were obtained:
Conditions in all cases: acceptor, donor Sop2 fixed 1 mM, pH 5.0, 37 °C
purified protein [1] = substrate: O=[N+]([O-])c1ccc(O[C@@H]2O[C@H](CO)[C@@H](O)[C@H](O)[C@H]2O)cc1; assay: purified protein
purified protein [2] = substrate: O=[N+]([O-])c1ccc(O[C@H]2O[C@H](CO)[C@@H](O)[C@H](O)[C@H]2O)cc1; assay: purified protein
[3] = substrate: CCO[C@H]1O[C@H](CO)[C@@H](O)[C@H](O)[C@H]1O; assay: hexokinase/G6PDH thio-NAD+ coupled glucose release; assay type: biochemical, Ignavibacterium album
Source text: (§1) hexokinase/G6PDH thio-NAD+ coupled glucose release on IaSGT (IALB_1185)

[4] = substrate: CO[C@@H]1O[C@H](CO)[C@@H](O)[C@H](O)[C@H]1O; assay: hexokinase/G6PDH thio-NAD+ coupled glucose release; assay type: biochemical, Ignavibacterium album
Source text: as §1

[5] = substrate: CO[C@H]1O[C@H](CO)[C@@H](O)[C@H](O)[C@H]1O; assay: hexokinase/G6PDH thio-NAD+ coupled glucose release; assay type: biochemical, Ignavibacterium album
Source text: as §1

[6] = substrate: O=c1ccc2cc(O[C@@H]3O[C@H](CO)[C@@H](O)[C@H](O)[C@H]3O)c(O)cc2o1; assay: hexokinase/G6PDH thio-NAD+ coupled glucose release; assay type: biochemical, Ignavibacterium album
Source text: as §1

[7] = substrate: OC[C@H]1O[C@@H](Oc2ccc(O)cc2)[C@H](O)[C@@H](O)[C@@H]1O; assay: hexokinase/G6PDH thio-NAD+ coupled glucose release; assay type: biochemical, Ignavibacterium album
Source text: as §1

[8] = substrate: OC[C@H]1O[C@H](OCc2ccccc2)[C@H](O)[C@@H](O)[C@@H]1O; assay: hexokinase/G6PDH thio-NAD+ coupled glucose release; assay type: biochemical, Ignavibacterium album
Source text: as §1

[9] = substrate: OC[C@H]1O[C@H](Oc2ccc(O)cc2)[C@H](O)[C@@H](O)[C@@H]1O; assay: hexokinase/G6PDH thio-NAD+ coupled glucose release; assay type: biochemical, Ignavibacterium album
Source text: as §1

[10] = substrate: OC[C@H]1O[C@H](Oc2ccc3ccccc3c2)[C@H](O)[C@@H](O)[C@@H]1O; assay: hexokinase/G6PDH thio-NAD+ coupled glucose release; assay type: biochemical, Ignavibacterium album
Source text: as §1

[11] = substrate: OC[C@H]1O[C@H](Oc2ccccc2)[C@H](O)[C@@H](O)[C@@H]1O; assay: hexokinase/G6PDH thio-NAD+ coupled glucose release; assay type: biochemical, Ignavibacterium album
Source text: as §1

[12] = substrate: OCc1ccc(O[C@@H]2O[C@H](CO)[C@@H](O)[C@H](O)[C@H]2O)cc1; assay: hexokinase/G6PDH thio-NAD+ coupled glucose release; assay type: biochemical, Ignavibacterium album
Source text: as §1

[13] = substrate: OCc1ccccc1O[C@@H]1O[C@H](CO)[C@@H](O)[C@H](O)[C@H]1O; assay: hexokinase/G6PDH thio-NAD+ coupled glucose release; assay type: biochemical, Ignavibacterium album
Source text: as §1

B1: IaSGT (IALB_1185) (Ignavibacterium album JCM 16511) (protein)
chain: MKPHNSEKYFVKNGQPHFLISGEVHYFRINPKLWRNHLQLLKQTGADTVSTYIPWDWHEIEEDDFDFEGKTHPARNLIRFIKLCKEENLDLIVKPGPYILAEYENQGLPSWLLKKLSKNAFALDENGNVISPDLVSYLSDEFLEYTFKWYDKVMPIISKHQKEHYGPITMMQLCNEIGVFQWLSGKSDYNPKVINLYKEFIIQRYKTIEKLNSVYSTNYNSFDDLKAPSGKIKLRSDYCAYFDFHLFFREYYNKYISILKNKIRSFGINIKLTHNIPGWIYGNASELPMLISTYSEIMKNHPDIIFGLDHIPEFVSFRNAHSDLACNKILEAMQPEAPVWAAEFQAGTREHHVKAYAKDLETFYIASLAHGIKGFNYYMFSQGINPEGKGFYGKTFYFQTALDAASNKLALYDSIKKVNRFIRKEQKDLLRTNVNSEICVGFYKPYFFTELISSQLLKEKKLNVEELGLYIDPRFLREEILFNGLLRGLQTLNYNYDVVDLENCDLKSLTAYKQLWITSAEFMDAETQNLLSEFVLNGGNLILYPAVPTLDNYLNRCEILKNNFGIEFITKDSSHKVSAFGIEDVFTAFSKKQIYNDTNSKPIAFTQENEICGIRKKIGKGELTILGFAFGYTSDEHLELIDKLVKLNKIKRELFVSDKDIQFVVRENNKSRYIFFLNYHNERKTFNYRKSSELKKKKSEEISIAPFSYKVIKENK
notes: full length (no N-terminal signal peptide), his6-tag fusion from pET30a(+) NdeI/XhoI, E. coli BL21(DE3); homodimer
Km (purified protein [1]): 40 ± 4 µM
kcat (purified protein [1]): 0.46 s⁻¹
kcat/Km (purified protein [1]): 12000 M⁻¹ s⁻¹
Km (purified protein [2]): 130 ± 20 µM
kcat (purified protein [2]): 5 s⁻¹
kcat/Km (purified protein [2]): 39000 M⁻¹ s⁻¹
Km [3]: 44 ± 5 µM
kcat [3]: 0.55 ± 0.02 s⁻¹
kcat/Km [3]: 13000 ± 1000 M⁻¹ s⁻¹
Km [4]: 130 ± 30 µM
kcat [4]: 1.9 ± 0.2 s⁻¹
kcat/Km [4]: 14000 ± 2000 M⁻¹ s⁻¹
Km [5]: 200 ± 30 µM
kcat [5]: 1 ± 0.1 s⁻¹
kcat/Km [5]: 4900 ± 400 M⁻¹ s⁻¹
Km [6]: 45 ± 6 µM
kcat [6]: 1.3 ± 0.1 s⁻¹
kcat/Km [6]: 29000 ± 1000 M⁻¹ s⁻¹
Km [7]: 26 ± 3 µM
kcat [7]: 1.4 ± 0.1 s⁻¹
kcat/Km [7]: 55000 ± 5000 M⁻¹ s⁻¹
Km [8]: 96 ± 11 µM
kcat [8]: 0.86 ± 0.05 s⁻¹
kcat/Km [8]: 9000 ± 700 M⁻¹ s⁻¹
Km [9]: 380 ± 50 µM
kcat [9]: 8.7 ± 0.6 s⁻¹
kcat/Km [9]: 23000 ± 2000 M⁻¹ s⁻¹
Km [10]: 150 ± 30 µM
kcat [10]: 3.9 ± 0.3 s⁻¹
kcat/Km [10]: 26000 ± 3000 M⁻¹ s⁻¹
Km [11]: 220 ± 30 µM
kcat [11]: 1.8 ± 0.2 s⁻¹
kcat/Km [11]: 8100 ± 600 M⁻¹ s⁻¹
Km [12]: 42 ± 4 µM
kcat [12]: 0.49 ± 0.02 s⁻¹
kcat/Km [12]: 12000 ± 1000 M⁻¹ s⁻¹
Km [13]: 21 ± 3 µM
kcat [13]: 0.88 ± 0.03 s⁻¹
kcat/Km [13]: 43000 ± 1000 M⁻¹ s⁻¹
